Experimental data reported in patent publication US5786191A, “Cloning and expression of complementary DNAs for multiple members of the human cytochrome P450 2C subfamily” (priority 1994, dated 1998).

Key:
Assay type in all cases: biochemical
[1] = Mephenytoin 4'-hydroxylase assay, purified recombinant P450s in reconstituted system, S-enantiomer; conditions: for R/S Ratio of mephenytoin 4'-hydroxylase activity: purified P450s (Table IV); for Mephenytoin 4'-Hydroxylase Activity, S: purified P450s, triplicate, means ± SE, blank not subtracted
Protocol: (§1) Purified or recombinant yeast microsomes (10-50 pmol) were preincubated with dilauroylphosphatidylcholine (15 μg per 50 pmol P450), P450 reductase (500 U per 50 mol P450), and human cytochrome b5 (2:1 molar ratio when added). The reconstituted mixture was preincubated for 5 min at 37° C., and then placed on ice. […] The mixture was then incubated at 37° with shaking for 3 min, and the reaction started with the addition of 2 mM NADPH and terminated after 30 min with an equal volume of methanol. […] Reaction volumes were generally 0.25 ml except when the volume of recombinant purified cytochrome or yeast microsomes was greater than 50 μl. In these cases, the volume was increased to 0.5 ml to limit the volume of glycerol from the purified preparation to <4% of the final volume.
(§2) At the end of the incubation period, the reactions were terminated with an equal volume of methanol. The incubation mixture was centrifuged at 10,000 g for 10 min and an aliquot assayed directly using HPLC without extraction. Samples with particularly low activity were concentrated by lyophilization and redissolved in a small volume of methanol:water (1:1) before assay. The HPLC system consisted of a reverse phase C18 (10 μm) Versapak, 300 mm×4.1 mm column (Altech Associates, Deerfield, Ill.) using an isocratic solvent consisting of methanol:water (45:55) with a flow rate was kept of 1 ml/min for 25 min.

[2] = Mephenytoin 4'-hydroxylase assay, purified recombinant P450s in reconstituted system, R-enantiomer; conditions: triplicate, means ± SE, blank not subtracted
Protocol: as §1, §2

[3] = Mephenytoin 4'-hydroxylase assay, recombinant human CYP2C yeast microsomes, S-enantiomer; conditions: for R/S Ratio of mephenytoin 4'-hydroxylase activity: recombinant yeast microsomes (Table III); for Mephenytoin 4'-Hydroxylase Activity, S: yeast microsomes + P450 reductase, phospholipid, cytochrome b5 2:1, 37° C., 30 min, liver microsomes unfortified, phosphate buffer
Protocol: as §1, §2

[4] = Mephenytoin 4'-hydroxylase assay, recombinant human CYP2C yeast microsomes, R-enantiomer; conditions: yeast microsomes + P450 reductase, phospholipid, cytochrome b5 2:1; 0.4 mM substrate; 37° C., 30 min; liver microsomes unfortified, phosphate buffer; means ± SE
Protocol: as §1, §2

[5] = Tolbutamide hydroxylase assay, recombinant human CYP2C yeast microsomes; conditions: for Tolbutamide Hydroxylase Activity per mg protein: 1 mg yeast microsomal protein + P450 reductase, or 0.2 mg liver microsomal protein without reductase; for Tolbutamide Hydroxylase Activity per mg protein / Tolbutamide Hydroxylase Activity per nmol P450: means ± SE; for Tolbutamide Hydroxylase Activity per nmol P450: adjusted for P450 content
Protocol: Yeast microsomes (1 mg protein) were preincubated with 300 pmol hamster P450 reductase in 0.2 ml of the incubation buffer (below) for 3 min at 37° C. The reaction was then placed on ice and incubated in 0.2 ml of 50 mM HEPES buffer (pH 7.4) containing 1.5 mM MgCl2, 0.1 mM EDTA in a final volume of 1 ml and 1 mM sodium tolbutamide. The reaction was initiated with 0.5 mM NADPH. Human liver microsomes (0.22 mg protein) were incubated without reductase. Incubations with reconstituted recombinant P450s contained 50 pmol purified P450 enzyme, 150 pmol P450 reductase, and 15 μg dilauroylphosphatidylcholine, and were performed in 100 mM potassium phosphate buffer (pH 7.4). Reactions were terminated after 60 min at 37° C. by the addition of 50 μl of 4N HCl, followed by extraction with 3 ml of water-saturated ethyl acetate. […] The column eluate was monitored at 230 nm and rates of product formation were determined from standard curves prepared by adding varying amounts of 4-hydroxytolbutamide to incubations conducted without NADPH. […] Samples were analyzed in triplicate.

[6] = Tolbutamide hydroxylase assay, purified reconstituted P450s; conditions: blank (22 ± 5) subtracted, means ± SE
Protocol: Tolbutamide hydroxylase activity was measured according to Knodell et al., J. Pharmacol. Exper. Ther. 241:1112-1119 (1987), with several modifications. Yeast microsomes (1 mg protein) were preincubated with 300 pmol hamster P450 reductase in 0.2 ml of the incubation buffer (below) for 3 min at 37° C. The reaction was then placed on ice and incubated in 0.2 ml of 50 mM HEPES buffer (pH 7.4) containing 1.5 mM MgCl2, 0.1 mM EDTA in a final volume of 1 ml and 1 mM sodium tolbutamide. The reaction was initiated with 0.5 mM NADPH. Human liver microsomes (0.22 mg protein) were incubated without reductase. Incubations with reconstituted recombinant P450s contained 50 pmol purified P450 enzyme, 150 pmol P450 reductase, and 15 μg dilauroylphosphatidylcholine, and were performed in 100 mM potassium phosphate buffer (pH 7.4). Reactions were terminated after 60 min at 37° C. by the addition of 50 μl of 4N HCl, followed by extraction with 3 ml of water-saturated ethyl acetate. The ethyl acetate extracts were dried under nitrogen at 40° C., the residue resolubilized in 200 μl methanol, and 4-hydroxytolbutamide then assayed using HPLC by injecting 50 μl of the solubilized extract onto a μBONDAPAK C18 column (4.6×300 mm) using 0.05% phosphoric acid, pH 2.6: acetonitrile (6:4, v/v) as the mobile phase with a flow rate of 1 ml/min. The column eluate was monitored at 230 nm and rates of product formation were determined from standard curves prepared by adding varying amounts of 4-hydroxytolbutamide to incubations conducted without NADPH. […] Samples were analyzed in triplicate.

Row | Molecule | R/S Ratio of mephenytoin 4'-hydroxylase activity [1] | Mephenytoin 4'-Hydroxylase Activity, S ([1]; reconstituted system) [nmol/min/nmol P450] | Mephenytoin 4'-Hydroxylase Activity, R [2] [nmol/min/nmol P450] | R/S Ratio of mephenytoin 4'-hydroxylase activity [3] | Mephenytoin 4'-Hydroxylase Activity, S ([3]; 0.4 mM substrate, means ± SE) | Mephenytoin 4'-Hydroxylase Activity, R [4] [nmol/min/nmol P450] | Tolbutamide Hydroxylase Activity per mg protein [5] [nmol/min/mg protein] | also measured
1 | 2C8 Purified from Human Liver: cytochrome P450 2C8 purified from human liver microsomes (protein, UniProt P10632 1-490, looked up) Cytochrome P450 2C8: MEPFVVLVLCLSFMLLFSLWRQSCRRRKLPPGPTPLPIIGNMLQIDVKDICKSFTNFSKVYGPVFTVYFGMNPIVVFHGYEAVKEALIDNGEEFSGRGNSPISQRITKGLGIISSNGKRWKEIRRFSLTTLRNFGMGKRSIEDRVQEEAHCLVEELRKTKASPCDPTFILGCAPCNVICSVVFQKRFDYKDQNFLTLMKRFNENFRILNSPWIQVCNNFPLLIDCFPGTHNKVLKNVALTRSYIREKVKEHQASLDVNNPRDFIDCFLIKMEQEKDNQKSEFNIENLVGTVADLFVAGTETTSTTLRYGLLLLLKHPEVTAKVQEEIDHVIGRHRSPCMQDRSHMPYTDAVVHEIQRYSDLVPTGVPHAVTTDTKFRNYLIPKGTTIMALLTSVLHDDKEFPNPNIFDPGHFLDKNGNFKKSDYFMPFSAGKRICAGEGLARMELFLFLTTILQNFNLKSVDDLKNLNTTAVTKGIVSLPPSYQICFIPV | 1.6 | 0.032 ± 0.003 | 0.051 ± 0.030 | – | – | – | – | –
2 | 2C19: human cytochrome P450 2C19 polypeptide, clone 11a, SEQ ID NO:1, expressed recombinantly in yeast (protein) MDPFVVLVLCLSCLLLLSIWRQSSGRGKLPPGPTPLPVIGNILQIDIKDVSKSLTNLSKIYGPVFTLYFGLERMVVLHGYEVVKEALIDLGEEFSGRGHFPLAERANRGFGIVFSNGKRWKEIRRFSLMTLRNFGMGKRSIEDRVQEEARCLVEELRKTKASPCDPTFILGCAPCNVICSIIFQKRFDYKDQQFLNLMEKLNENIRIVSTPWIQICNNFPTIIDYFPGTHNKLLKNLAFMESDILEKVKEHQESMDINNPRDFIDCFLIKMEKEKQNQQSEFTIENLVITAADLLGAGTETTSTTLRYALLLLLKHPEVTAKVQEEIERVIGRNRSPCMQDRGHMPYTDAVVHEVQRYIDLIPTSLPHAVTCDVKFRNYLIPKGTTILTSLTSVLHDNKEFPNPEMFDPRHFLDEGGNFKKSNYFMPFSAGKRICVGEGLARMELFLFLTFILQNFNLKSLIDPKDLDTTPVVNGFASVPPFYQLCFIPV | 0.03 | 6.17 ± 0.24 | 0.19 ± 0.04 | 0.03 | ~ 5 nmol/min/nmol P450 | 0.014 ± 0.02 | 18.4 ± 2.4 | Rate of S-hydroxylation relative to R-hydroxylation of mephenytoin ([3]; stereospecificity, yeast microsomes): at least 30 fold; Mephenytoin 4'-Hydroxylase Activity, S ([3]; 0.4 mM substrate, means ± SE, listed as 2C19 (11a)): 4.6 ± 0.3 nmol/min/nmol P450; S-mephenytoin 4'-hydroxylation turnover relative to human liver microsomes ([1]; fold higher than human liver microsomes): at least 10 times; S-mephenytoin 4'-hydroxylation turnover relative to recombinant 2C9, 2C18 or 2C8 ([1]; purified, reconstituted system): 50-100 times; S-mephenytoin 4'-hydroxylase turnover relative to P450MP purified from human liver ([1]; vs literature value of Srivastava et al.): ~ 30 times
3 | 2C9: recombinant human P450 2C9, allele not specified in the sentence (protein, UniProt P11712 1-490, looked up) Cytochrome P450 2C9: MDSLVVLVLCLSCLLLLSLWRQSSGRGKLPPGPTPLPVIGNILQIGIKDISKSLTNLSKVYGPVFTLYFGLKPIVVLHGYEAVKEALIDLGEEFSGRGIFPLAERANRGFGIVFSNGKKWKEIRRFSLMTLRNFGMGKRSIEDRVQEEARCLVEELRKTKASPCDPTFILGCAPCNVICSIIFHKRFDYKDQQFLNLMEKLNENIKILSSPWIQICNNFSPIIDYFPGTHNKLLKNVAFMKSYILEKVKEHQESMDMNNPQDFIDCFLMKMEKEKHNQPSEFTIESLENTAVDLFGAGTETTSTTLRYALLLLLKHPEVTAKVQEEIERVIGRNRSPCMQDRSHMPYTDAVVHEVQRYIDLLPTSLPHAVTCDIKFRNYLIPKGTTILISLTSVLHDNKEFPNPEMFDPHHFLDEGGNFKKSKYFMPFSAGKRICVGEALAGMELFLFLTSILQNFNLKSLVDPKNLDTTPVVNGFASVPPFYQLCFIPV | – | – | – | – | 0.02 nmol/min/nmol P450 | – | – | Turnover number of recombinant 2C9 relative to 2C9 purified from human liver ([1]; S-mephenytoin 4'-hydroxylation): ~ 100 times
4 | 2C9-Ile^359 (65): recombinant human P450 2C9 allelic variant, clone 65 (protein, UniProt P11712 1-490, looked up) Cytochrome P450 2C9: MDSLVVLVLCLSCLLLLSLWRQSSGRGKLPPGPTPLPVIGNILQIGIKDISKSLTNLSKVYGPVFTLYFGLKPIVVLHGYEAVKEALIDLGEEFSGRGIFPLAERANRGFGIVFSNGKKWKEIRRFSLMTLRNFGMGKRSIEDRVQEEARCLVEELRKTKASPCDPTFILGCAPCNVICSIIFHKRFDYKDQQFLNLMEKLNENIKILSSPWIQICNNFSPIIDYFPGTHNKLLKNVAFMKSYILEKVKEHQESMDMNNPQDFIDCFLMKMEKEKHNQPSEFTIESLENTAVDLFGAGTETTSTTLRYALLLLLKHPEVTAKVQEEIERVIGRNRSPCMQDRSHMPYTDAVVHEVQRYIDLLPTSLPHAVTCDIKFRNYLIPKGTTILISLTSVLHDNKEFPNPEMFDPHHFLDEGGNFKKSKYFMPFSAGKRICVGEALAGMELFLFLTSILQNFNLKSLVDPKNLDTTPVVNGFASVPPFYQLCFIPV | 0.77 | 0.081 ± 0.006 | 0.063 ± 0.003 | 0.9 | 0.043 ± 0.000 nmol/min/nmol P450 | 0.041 ± 0.005 | 169.8 ± 7.4 | Tolbutamide Hydroxylase Activity [6]: 122 + 29 pmol/min/nmol P450; Tolbutamide Hydroxylase Activity per nmol P450 [5]: 3.4 ± 0.15 nmol/min/nmol P450; Tolbutamide turnover number of Ile^359 allele relative to Leu^359 allele of 2C9 ([5]; recombinant microsomes adjusted for P450 content): 3 fold
5 | 2C9 Purified from Human Liver: cytochrome P450 2C9 purified from human liver microsomes (protein, UniProt P11712 1-490, looked up) Cytochrome P450 2C9: MDSLVVLVLCLSCLLLLSLWRQSSGRGKLPPGPTPLPVIGNILQIGIKDISKSLTNLSKVYGPVFTLYFGLKPIVVLHGYEAVKEALIDLGEEFSGRGIFPLAERANRGFGIVFSNGKKWKEIRRFSLMTLRNFGMGKRSIEDRVQEEARCLVEELRKTKASPCDPTFILGCAPCNVICSIIFHKRFDYKDQQFLNLMEKLNENIKILSSPWIQICNNFSPIIDYFPGTHNKLLKNVAFMKSYILEKVKEHQESMDMNNPQDFIDCFLMKMEKEKHNQPSEFTIESLENTAVDLFGAGTETTSTTLRYALLLLLKHPEVTAKVQEEIERVIGRNRSPCMQDRSHMPYTDAVVHEVQRYIDLLPTSLPHAVTCDIKFRNYLIPKGTTILISLTSVLHDNKEFPNPEMFDPHHFLDEGGNFKKSKYFMPFSAGKRICVGEALAGMELFLFLTSILQNFNLKSLVDPKNLDTTPVVNGFASVPPFYQLCFIPV | 1.6 | 0.033 ± 0.001 | 0.051 ± 0.007 | – | – | – | – | Tolbutamide Hydroxylase Activity [6]: 109 ± 16 pmol/min/nmol P450
6 | 2C18-Thr^385 (29c): recombinant 2C18 allelic variant 29c (Thr 385) in yeast microsomes; Table III does not state residue 2 (protein, UniProt P33260 26-490, looked up) Cytochrome P450 2C18: RGRLPSGPTPLPIIGNILQLDVKDMSKSLTNFSKVYGPVFTVYFGLKPIVVLHGYEAVKEALIDHGEEFSGRGSFPVAEKVNKGLGILFSNGKRWKEIRRFCLMTLRNFGMGKRSIEDRVQEEARCLVEELRKTNASPCDPTFILGCAPCNVICSVIFHDRFDYKDQRFLNLMEKFNENLRILSSPWIQVCNNFPALIDYLPGSHNKIAENFAYIKSYVLERIKEHQESLDMNSARDFIDCFLIKMEQEKHNQQSEFTVESLIATVTDMFGAGTETTSTTLRYGLLLLLKYPEVTAKVQEEIECVVGRNRSPCMQDRSHMPYTDAVVHEIQRYIDLLPTNLPHAVTCDVKFKNYLIPKGTTIITSLTSVLHNDKEFPNPEMFDPGHFLDKSGNFKKSDYFMPFSAGKRMCMGEGLARMELFLFLTTILQNFNLKSQVDPKDIDITPIANAFGRVPPLYQLCFIPV | – | – | – | 1.3 | 0.042 ± 0.004 nmol/min/nmol P450 | 0.054 ± 0.003 | – | Mephenytoin 4'-Hydroxylase Activity, S, no b5 ([3]; yeast microsomes without cytochrome b5, 0.4 mM substrate, means ± SE): 0.034 ± 0.008 nmol/min/nmol P450
7 | 2C18-Asp^2 Thr^385 (29c-1a): recombinant human P450 2C18 allelic variant 29c with correct Asp at position 2, Thr at 385 (protein, UniProt P33260 26-490, looked up) Cytochrome P450 2C18: RGRLPSGPTPLPIIGNILQLDVKDMSKSLTNFSKVYGPVFTVYFGLKPIVVLHGYEAVKEALIDHGEEFSGRGSFPVAEKVNKGLGILFSNGKRWKEIRRFCLMTLRNFGMGKRSIEDRVQEEARCLVEELRKTNASPCDPTFILGCAPCNVICSVIFHDRFDYKDQRFLNLMEKFNENLRILSSPWIQVCNNFPALIDYLPGSHNKIAENFAYIKSYVLERIKEHQESLDMNSARDFIDCFLIKMEQEKHNQQSEFTVESLIATVTDMFGAGTETTSTTLRYGLLLLLKYPEVTAKVQEEIECVVGRNRSPCMQDRSHMPYTDAVVHEIQRYIDLLPTNLPHAVTCDVKFKNYLIPKGTTIITSLTSVLHNDKEFPNPEMFDPGHFLDKSGNFKKSDYFMPFSAGKRMCMGEGLARMELFLFLTTILQNFNLKSQVDPKDIDITPIANAFGRVPPLYQLCFIPV | 1.3 | 0.116 ± 0.010 | 0.147 ± 0.025 | – | – | – | 9.3 ± 0.7 | Tolbutamide Hydroxylase Activity per nmol P450 [5]: 0.19 ± 0.02 nmol/min/nmol P450
